Data on 17 molecules can be found in patent US20260258115A1 (MAPP BIOPHARMACEUTICAL, published 2026).

Positions count from the first letter of the chain named. Some results are limits rather than exact numbers.

Experiment [1] has as its target T1, RSV postfusion F (postF), subtype A (respiratory syncytial virus subtype A, UniProt P03420 26-513).
T1 construct: also called Postfusion subtype A; F deltaFP
Description: BLI, IgG.

For experiment [2], the target named is T2, RSV prefusion F (preF), subtype B (respiratory syncytial virus subtype B).
T2 construct: also called Prefusion subtype B
Description: BLI, IgG.

The target in another experiment is RSV F on RSV-A2 virus (Respiratory Syncytial Virus (RSV-A2), UniProt P03420 26-574). Briefly: cell-based or functional assay.
Experiment [3] addresses RSV prefusion F (preF), DS-Cav1 (Respiratory Syncytial Virus, UniProt P03420 26-513). Briefly: BLI, IgG on anti-human IgG sensor, 100 nM antigen, 1:1 fit.
Experiment [4] addresses RSV postfusion F (postF), F ΔFP (Respiratory Syncytial Virus, UniProt P03420 26-513). Described as above.

B1: ADI-19485 (antibody, V domains shown)
VH: QVQLQESGPGLVKPSQTLSLSCTVSGGSISSTNYYWTWIRQHPGKGLEWIGFIYNRGSTYYNPSLTSRVTISVDTSKNQFSLKLTSVTAADTAVYYCARAPYYYDRNGYYTAFDIWGQGTTVTVSS
VL: EIVLTQSPATLSVSPGERATLSCRASQSVSSNLAWYQQKPGQAPRLLIYDASTRATDIPARFSGGGSGTEFTLTISSLQSEDFAVYYCQQYNNWPRTFGLGTKVDIK
notes: full-length IgG
In the case of B1, the Kd in experiment [1] amounted to 0.251 nM.

B2: ADI-14343 (antibody, V domains shown)
VH: QVQLVQSGAEVKKPGSSVKVSCKASGGTFSSYGVNWVRQAPGQGLEWMGRIIPMFGTSNYAQKFQGRVTITADGSTSTAYMELSSLRSEDTAVYYCARVGSPTTGAIMGVWGQGTTVTVSS
VL: DIVLTQTPLSLPVTPGEPASISCRSSQSLLQSNGFNYLDWYLQKPGQSPKLLIYMGSNRASGVPDRFSGSGSGTDFTLIISRVEAEDVGVYYCMQAIESPLTFGGGTKVDIK
notes: full-length IgG; also called Ab 11
B2: the Kd in experiment [1] came out at 2.94 nM; in experiment [2], 38.1 nM.

B3: ADI-41551 (antibody, V domains shown)
VH: QVQLQESGGGVVQPGGSLRLSCAASGFTFSRHWMHWVRQVPGKGLVWVSRINSDESTIDYADSVKGRFTISRDNAKNTLYLQMNSLRAEDTAVYYCVRDMVAVPGTTGGDYWGQGTLVTVSS
VL: SYELTQPPSVSVSPGQTADITCSGDKLGDKYACWYQQRAGQSPILVLYQDTRRPSGIPERFSGSNSGDTATLTISGTQAMDEADYYCQAWDSSTAWVFGGGTKLTVL
notes: also called Ab 823; Antibody Number 823
Turning to B3, the “Neutralization IC50 (RSV subtype A)” value in the experiment with RSV F on RSV-A2 virus is more than 25 µg/mL. Further, the Kd in experiment [3] turned out to be 13 nM; in experiment [4], 23.8 nM.

B4: ADI-14359 (antibody, V domains shown)
VH: QVQLVQSGPALVKPTQTLTLTCTFSGFSLSTSGMCVSWIRQPPGKALEWLARIDWDDDKYYSTSLKTRLTISKDTSKNQVVLTMTNMDPVDTATYYCARATNYDSSGYYSLYFDYWGQGTLVTVSS
VL: not shown
notes: full-length IgG; also called Ab 27
For B4, the results for the Kd in experiment [1] and in experiment [2] were 4.11 nM and 34.6 nM, respectively.

B5: ADI-22779 (antibody, V domains shown)
VH: QVQLQQWGAGLLKPSETLSLTCAVYGGSFSDYSWTWIRQPPGKGLEWIGEISHTGITNYNPSLKSRVNISVDTSKNQFSLKLSSVTAADTAVYYCARADAYDSSGYYVYYFDYWGQGTLVTVSS
VL: DIQVTQSPPSLSASVGDRVTITCRASQTIASYLNWYHQKPGKAPELLIYAASSLQSGVPSRFSGSGSGTAFTLTISSLQPEDFATYYCQQSYSAPPSFGQGTKVEIK
notes: full-length IgG
Regarding B5, binding in experiment [1] was characterised by a dissociation constant (Kd) of 6.2 nM.

B6: ADI-14384 (antibody, V domains shown)
VH: QVQLQESGSGLVKPSQTLSLTCTVSGGSISSVGYSWSWIRQPPGKGLEWIGYIYHSGSPYYSPSLNSRVTISVDRSKNQFSLKLSSVTAADTAVYFCARVFFGGGGAFDIWGQGTTVTVSS
VL: QPGLTQPPSVSVAPGQTARITCGGNNIGSKSVQWYQQKPGQAPVLVMYYDSDRPSGIPDRFSGSSSGNTATLTITRVEAGDEADYSCQVWDSVNVHPVIFGGGTKLTVL
notes: full-length IgG; also called Ab 52
In the case of B6, the Kd in experiment [1] was determined as 0.469 nM; in experiment [2] it was 4.78 nM.

B7: ADI-14381 (antibody, V domains shown)
VH: EVQLVESGGGLVQPGGSLRLSCAASGFTFSSYSMNWVRQAPGKGLEWVSYIGSSSSSVYYGDSAKGRFTISRDNAKNSLYLQMNSLRDEDTALYYCARVGWLQYCRGGSCYASFGMDVWGQGTTVTVSS
VL: DIQMTQSPSSLSASVGDRVTITCRASQGIRNDLGWYQQKPGIAPKLLIYAASSLQSGVPSRFSGSGSGTDFTLTISSLQPEDFATYYCLQDYDSPYTFGQGTKLEIK
notes: full-length IgG; also called Ab 49
Regarding B7, the Kd amounted to 0.754 nM in experiment [1] and 36.7 nM in experiment [2].

B8: ADI-24808 (antibody, V domains shown)
VH: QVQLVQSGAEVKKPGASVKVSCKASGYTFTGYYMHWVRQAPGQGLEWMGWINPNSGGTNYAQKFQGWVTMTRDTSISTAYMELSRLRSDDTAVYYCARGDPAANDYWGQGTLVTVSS
VL: QPVLTQPPSASGSPGQSVTISCTGTSSDVGGYNYVSWYQQHPGKAPKLMIYEVSKRPSGVPDRFSGSKSGNTASLTVSGLQAEDEADYYCSSYAGSNNVVFGGGTKLTVL
notes: full-length IgG
Molecule B8 came in with a dissociation constant Kd in experiment [1] of 10.8 nM.

B9: ADI-24851 (antibody, V domains shown)
VH: not shown
VL: B8 VL with P2S, T5I
notes: full-length IgG
On to B9, for which the Kd in experiment [1] came to 20.9 nM.

B10: ADI-22775 (antibody, V domains shown)
VH: EVQLLESGGGVVQPGRSLRLSCAASGFTFSDYGMHWVRQAPGKGLEWVAVIWYDGSYKYYADSVKGRFTISRDNSKNTLFLQMNSLRAEDTAVYYCARESLQTHDAFDIWGQGTMVTVSS
VL: DIQMTQSPSSLSASVGDRVTITCRASQGISNSLAWYQQKPGKAPKLLLYAASRLESGVPSRFSGSGSGTDYTLTINSLQPEDFATYFCQQYYSTLTWTFGQGTKVDIK
notes: full-length IgG
B10 displayed a Kd in experiment [1] of 30 nM.

B11: ADI-14362 (antibody, V domains shown)
VH: EVQLLESGGGLVQPGGSLRLSCAASGFTFSSYAMSWVRQAPGKGLEWVSGISGSGGSTYYADSVKGRFTISRDNSKNTLYLEMNSLRAEDTAVYYCAKRYYYGSGTYTFDIWGQGTMVTVSS
VL: not shown
notes: full-length IgG; also called Ab 30
For the molecule B11, the Kd in experiment [1] amounted to 15.7 nM; in experiment [2], 119 nM.

B12: ADI-24818 (antibody, V domains shown)
VH: not shown
VL: QPVLTQPASVSGSPGQSITISCTGTSSDVGGYNYVSWYQQHPGKAPKLMIYDVSNRPSGVSNRFSGSKSGNTASLTISGLQAEDEADYYCSSYTSSSTLVFGGGTQLTVL
notes: full-length IgG; also called Ab 380
For B12, in experiment [1], the Kd is 6.47 nM.

B13: ADI-22768 (antibody, V domains shown)
VH: EVQLVESGGGLVQPGGSLRLSCAASGFTFSSYEMNWVRQAPGKGLEWVSYISSSGSTIYYADSVKGRFTISRDNAKNSLYLQMNSLRAEDTAVYYCAKSYIYDSSGYYLYYFDYWGQGTLVTVSS
VL: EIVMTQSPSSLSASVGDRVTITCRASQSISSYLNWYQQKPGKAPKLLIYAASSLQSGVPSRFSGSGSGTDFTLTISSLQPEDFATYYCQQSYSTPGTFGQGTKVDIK
notes: full-length IgG
B13: the Kd in experiment [1] came out at 3.41 nM; in experiment [2], 4.57 nM.

B14: ADI-14348 (antibody, V domains shown)
VH: QVQLVESGGGVAQPGGSLRLSCVASGFTFSNYGMHWVRQAPGKGLEWVAFIRSDGSKKYYGDSGKGRFTISRDNSKNTLYLQMNSLRAEDTALYYCARERAGATFAFDIWGQGTTVTVSS
VL: QSALTQPRSVSGSPGQSVTISCTGTSSDVGGYNFVSWYQHHPGKAPKLMIYDVTNRPSGVPDRFSGSKSGNTASLTISGLQADDEADYYCCSYAGGFTFYVFGTGTKVTVL
notes: full-length IgG; also called Ab 16
With B14, the figures for the Kd in experiment [1] and in experiment [2] were 5.66 nM and 110 nM, respectively.

B15: ADI-14373 (antibody, V domains shown)
VH: QVQLQQWGAGLLKPSETLSLTCAVYGGSFSGSYWSWIRQPPGKGLEWIGEINHSGSTSYNPSLKSRVTISVDTSKKQFSLKLSSMTAADTAVYYCAGGFYYDSSGSYAPHPTFDYWGQGTLVTVSS
VL: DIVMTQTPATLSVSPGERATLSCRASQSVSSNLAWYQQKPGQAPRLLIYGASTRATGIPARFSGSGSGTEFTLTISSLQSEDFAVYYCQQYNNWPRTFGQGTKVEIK
notes: full-length IgG; also called Ab 41
For B15, the Kd in experiment [1] stood at 1.06 nM; in experiment [2], 15.9 nM.

B16: ADI-41549 (antibody, V domains shown)
VH: EVQLLESGGGVVQPGGSLRLSCAASGFTFSGYGMHWVRQAPGKGLEWVAFIQYNGSNKYYADSVKGRFTISRDNSKNTLYVQLNSLRAEDTAVYYCATDILVVPAATPLISYYFGMDVWGQGTTVTVSS
VL: QSALTQPASVSGSPGQSITISCTGTSSDVGGYNYVSWYQQYPGKAPKLMIYEVTNRPSGVSNRFSGSKSGNTASLTISGLQAEDEADYYCCSYTSTNTRVFGTGTKVTVL
notes: also called Ab 821; Antibody Number 821
As for B16, in the experiment with RSV F on RSV-A2 virus, the “Neutralization IC50 (RSV subtype A)” value is more than 25 µg/mL. Also, the Kd in experiment [3] stood at 0.408 nM; in experiment [4] it was 1.56 nM.

B17: ADI-14382 (antibody, V domains shown)
VH: EVQLLESGGGVVQPGRSLRLSCAASGFTFSAYGFHWVRQAPGKGLEWVAVIWFDGNNKYYADSMKGRFIISRDNSKNTLYLQMNSLRAEDTAVYYCARDPKETGEFDYWGQGTLVTVSS
VL: B16 VL with S26I, G31R, Y41H, E52D, D87V, S95I, T96S, N97S, R99Y, V107L
notes: full-length IgG; also called Ab 50
In experiment [1], B17 came in with a dissociation constant Kd of 0.846 nM.
